# Measurements published in patent US20220119825A1, “SCALABLE PEPTIDE-GPCR INT[…] SYSTEMS” (THE TRUSTEES OF COLUMBIA UNIVERSITY IN THE CITY OF NEW YORK, priority 2019, published 2022).
# T1: Zb.Ste2, Ste2-like mating GPCR of Zygosaccharomyces bailii (Zygosaccharomyces bailii)
# T1 chain: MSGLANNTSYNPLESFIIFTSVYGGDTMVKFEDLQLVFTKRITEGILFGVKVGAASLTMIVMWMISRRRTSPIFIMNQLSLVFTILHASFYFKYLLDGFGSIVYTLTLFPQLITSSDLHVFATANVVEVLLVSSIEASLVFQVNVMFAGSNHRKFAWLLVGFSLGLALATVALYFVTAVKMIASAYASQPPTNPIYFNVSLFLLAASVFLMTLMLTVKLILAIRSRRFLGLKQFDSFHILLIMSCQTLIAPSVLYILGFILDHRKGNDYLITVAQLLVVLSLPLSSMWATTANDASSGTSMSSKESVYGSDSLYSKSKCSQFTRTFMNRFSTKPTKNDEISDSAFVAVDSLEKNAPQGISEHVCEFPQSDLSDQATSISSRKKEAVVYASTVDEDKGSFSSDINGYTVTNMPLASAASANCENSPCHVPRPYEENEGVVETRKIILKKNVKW
# T2: Cau.Ste2, Ste2-like mating GPCR of Candida auris (Candida auris)
# T2 chain: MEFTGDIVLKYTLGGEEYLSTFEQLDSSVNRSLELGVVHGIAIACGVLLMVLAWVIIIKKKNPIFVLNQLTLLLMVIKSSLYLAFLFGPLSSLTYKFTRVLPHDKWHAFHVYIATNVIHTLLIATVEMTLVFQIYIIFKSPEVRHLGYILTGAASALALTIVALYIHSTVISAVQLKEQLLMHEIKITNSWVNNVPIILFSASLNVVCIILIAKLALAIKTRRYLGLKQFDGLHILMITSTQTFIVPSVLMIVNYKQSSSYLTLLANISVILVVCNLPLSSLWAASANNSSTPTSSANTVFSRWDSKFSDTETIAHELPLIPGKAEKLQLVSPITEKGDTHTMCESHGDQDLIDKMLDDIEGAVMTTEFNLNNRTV
# T3: Ca.Ste2, Ste2-like mating GPCR of Candida albicans (Candida albicans)
# T3 chain: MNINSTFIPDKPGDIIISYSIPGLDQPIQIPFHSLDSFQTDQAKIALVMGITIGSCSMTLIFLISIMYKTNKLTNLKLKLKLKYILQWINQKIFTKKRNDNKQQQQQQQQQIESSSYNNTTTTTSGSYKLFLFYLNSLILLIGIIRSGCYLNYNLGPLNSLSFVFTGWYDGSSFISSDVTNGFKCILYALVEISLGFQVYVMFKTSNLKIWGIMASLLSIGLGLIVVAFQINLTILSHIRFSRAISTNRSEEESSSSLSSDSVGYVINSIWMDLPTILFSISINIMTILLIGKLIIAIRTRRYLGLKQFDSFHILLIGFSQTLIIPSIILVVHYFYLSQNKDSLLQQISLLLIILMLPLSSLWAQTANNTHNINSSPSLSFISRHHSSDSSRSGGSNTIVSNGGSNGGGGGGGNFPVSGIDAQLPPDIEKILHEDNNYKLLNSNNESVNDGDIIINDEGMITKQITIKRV
# T4: Cg.Ste2, Ste2-like mating GPCR of Candida glabrata (Candida glabrata)
# T4 chain: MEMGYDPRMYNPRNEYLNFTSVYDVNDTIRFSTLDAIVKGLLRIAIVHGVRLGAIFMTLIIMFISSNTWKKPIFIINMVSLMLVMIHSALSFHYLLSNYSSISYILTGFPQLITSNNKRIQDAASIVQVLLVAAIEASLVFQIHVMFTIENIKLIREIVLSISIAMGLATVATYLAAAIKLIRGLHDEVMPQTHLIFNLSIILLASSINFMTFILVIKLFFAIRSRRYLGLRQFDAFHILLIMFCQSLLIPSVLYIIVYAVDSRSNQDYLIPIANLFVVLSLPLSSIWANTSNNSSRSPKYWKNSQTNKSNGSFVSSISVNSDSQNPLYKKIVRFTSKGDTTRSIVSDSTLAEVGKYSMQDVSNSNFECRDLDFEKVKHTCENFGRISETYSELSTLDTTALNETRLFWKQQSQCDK
# T5: Vp2.Ste2, Ste2-like mating GPCR of Vanderwaltozyma polyspora2 (Vanderwaltozyma polyspora)
# T5 chain: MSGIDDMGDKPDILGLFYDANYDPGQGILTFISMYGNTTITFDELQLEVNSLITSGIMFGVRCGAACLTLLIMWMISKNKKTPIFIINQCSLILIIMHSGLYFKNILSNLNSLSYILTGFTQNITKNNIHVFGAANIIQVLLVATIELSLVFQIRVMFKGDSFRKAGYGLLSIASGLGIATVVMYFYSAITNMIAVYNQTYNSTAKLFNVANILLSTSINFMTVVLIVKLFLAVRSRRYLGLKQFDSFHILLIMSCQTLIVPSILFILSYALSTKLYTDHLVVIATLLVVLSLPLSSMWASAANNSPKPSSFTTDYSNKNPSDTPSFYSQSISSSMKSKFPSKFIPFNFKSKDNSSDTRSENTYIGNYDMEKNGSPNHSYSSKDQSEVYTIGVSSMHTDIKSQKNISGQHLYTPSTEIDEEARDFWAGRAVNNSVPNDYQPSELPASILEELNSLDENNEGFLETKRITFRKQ
# Tests used:
# Experiment in all cases: cell-based or functional assay
# [1] = molecular target: T1, Zb.Ste2, Ste2-like mating GPCR of …
# [2] = molecular target: T2, Cau.Ste2, Ste2-like mating GPCR of …
# [3] = molecular target: T3, Ca.Ste2, Ste2-like mating GPCR of …
# [4] = molecular target: T4, Cg.Ste2, Ste2-like mating GPCR of …
# [5] = molecular target: T5, Vp2.Ste2, Ste2-like mating GPCR of …
binder,measurement,setting,value
HLVRLSPGAAMF [Zb peptide ligand #1 HLVRLSPGAAMF],Bttm (FUS1p-RFP reporter),[1],39.1 fluorescence/A600 (not printed)
same,EC50 (FUS1p-RFP reporter),[1],-5.8 log10 M (not printed)
same,Fold Change (FUS1p-RFP reporter),[1],7.5 fold
same,Span (FUS1p-RFP reporter),[1],253 fluorescence/A600 (not printed)
same,Top (FUS1p-RFP reporter),[1],292 fluorescence/A600 (not printed)
KWGWLRFFPGEPFV [Cau peptide ligand #1 KWGWLRFFPGEPFV],Bttm (FUS1p-RFP reporter),[2],50.6 fluorescence/A600 (not printed)
same,EC50 (FUS1p-RFP reporter),[2],-8.1 log10 M (not printed)
same,Fold Change (FUS1p-RFP reporter),[2],6.7 fold
same,Span (FUS1p-RFP reporter),[2],286 fluorescence/A600 (not printed)
same,Top (FUS1p-RFP reporter),[2],337 fluorescence/A600 (not printed)
GFRLTNFGYFEPG [Ca peptide ligand #1 GFRLTNFGYFEPG],Bttm (FUS1p-RFP reporter),[3],38.9 fluorescence/A600 (not printed)
same,EC50 (FUS1p-RFP reporter),[3],-7.7 log10 M (not printed)
same,Fold Change (FUS1p-RFP reporter),[3],7 fold
same,Span (FUS1p-RFP reporter),[3],233 fluorescence/A600 (not printed)
same,Top (FUS1p-RFP reporter),[3],272 fluorescence/A600 (not printed)
WHWVRLRKGQGLF [Cg peptide ligand #1 WHWVRLRKGQGLF],Bttm (FUS1p-RFP reporter),[4],30.5 fluorescence/A600 (not printed)
same,EC50 (FUS1p-RFP reporter),[4],-5.9 log10 M (not printed)
same,Fold Change (FUS1p-RFP reporter),[4],7 fold
same,Span (FUS1p-RFP reporter),[4],183 fluorescence/A600 (not printed)
same,Top (FUS1p-RFP reporter),[4],214 fluorescence/A600 (not printed)
WHWLRLRYGEPIY [Vp2 peptide ligand #1 WHWLRLRYGEPIY],Bttm (FUS1p-RFP reporter),[5],28 fluorescence/A600 (not printed)
same,EC50 (FUS1p-RFP reporter),[5],-7.7 log10 M (not printed)
same,Fold Change (FUS1p-RFP reporter),[5],7.7 fold
same,Span (FUS1p-RFP reporter),[5],187 fluorescence/A600 (not printed)
same,Top (FUS1p-RFP reporter),[5],215 fluorescence/A600 (not printed)
